Reference: patent US5621079A, “Neuropeptide Y receptor” (Merck & Co., Inc., priority 1995, dated 1997)

Biological target: T1, murine NPY Yx receptor (Mus musculus, UniProt Q61212)
T1 construct: identified a 371 amino acid open reading frame; expressed in transfected cells; host or cells: COS-7 cells, transient (pcDNA3 vector pVE2863), membranes
T1 sequence (Q61212 1-371): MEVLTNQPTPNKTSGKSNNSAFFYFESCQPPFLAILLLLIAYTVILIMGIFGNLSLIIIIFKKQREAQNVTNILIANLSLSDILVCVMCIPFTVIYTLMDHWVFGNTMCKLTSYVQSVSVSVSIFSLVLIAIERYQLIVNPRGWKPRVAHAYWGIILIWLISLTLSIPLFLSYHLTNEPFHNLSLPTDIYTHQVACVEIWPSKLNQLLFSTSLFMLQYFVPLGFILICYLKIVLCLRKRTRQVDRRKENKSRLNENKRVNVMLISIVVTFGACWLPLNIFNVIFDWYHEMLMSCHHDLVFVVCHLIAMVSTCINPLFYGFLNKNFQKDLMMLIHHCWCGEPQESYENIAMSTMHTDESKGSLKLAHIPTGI
Assay: 125I-PYY competition binding to membranes of COS-7 cells transfected with the murine NPY Yx receptor
Conditions: COS-7 membranes (50 μg protein), 125I-PYY 90 pM, 2 hours at room temperature; read-out: IC50 (concentration of peptide causing 50% inhibition of 125I-PYY binding)
Procedure: Using electroporation, COS-7 cells were transfected with the pcDNA3 expression vector containing the genomic DNA for the murine NPY Yx receptor (pVE2863). Two days post transfection, cells were dissociated with enzyme-free dissociation buffer, centrifuged at 1000 rpm for 10 minutes at 4° C., and resuspended in 10 mM Tris, pH 7.4 containing […] (phenylmethylsulfonyl fluoride), 10 μM phosphoramidon, and 40 μg/ml bacitracin. The cell suspension was homogenized with a glass homogenizer, and centrifuged at 2200 rpm for 10 minutes at 4° C. to remove cell debris. The plasma membrane fraction was recovered by centrifuging the supernatant at 18,000 rpm in a Sorvall SS-34 rotor for 15 minutes at 4° C. The membrane pellet was resuspended in the Tris/PMSF/phosphoramidon/bacitracin buffer by trituration 5 times using a 25 g needle and syringe. The membranes were stored frozen at -80° C. until use.
After 2 hours at room temperature, the incubation was filtered over GF/C filters, and the radioactivity bound to the filters was quantified with a Packard gamma counter.

| IC50 [nM] | Substance |
| --- | --- |
| 9 | [Leu31, Pro34]NPY [[Leu^31, Pro^34]NPY] |
| 134 | NPY13-36 [NPY(13-36)] |
| 16 | NPY2-36 [NPY(2-36)] |

| Substance | IC50 [nM] |
| --- | --- |
| Neuropeptide Y [NPY] | 6 |
